Data taken from the supplement of paper PMC9112550, “Optimization of the antimicrobial peptide Bac7 by deep mutational scanning” (BMC Biology, 2022).

System: Escherichia coli TOP10
Assay: shrunken log2 fold change of peptide-encoding DNA abundance (4.5 h post-induction vs induction); higher = less antimicrobial activity (less host growth inhibition)
Details: time post-induction: 4.5 h; library: site-saturation at positions 5, 18, 19, 20
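Also: peptides expressed intracellularly from a pBAD plasmid library in pooled LB shake-flask culture, induced with 0.3% L-arabinose, DNA abundance read by NGS, three biological replicates, DESeq2 with apeglm shrinkage.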

Row | Sequence | shrunken log2 fold change
1 | RRIRKRPPRLPRPRPRPKTAPRP | 0.2
2 | RRIRVRPPRLPRPRPRPIQAPRP | -0.0344
3 | RRIRQRPPRLPRPRPRPMAFPRP | -0.0854
4 | RRIRLRPPRLPRPRPRPEKVPRP | -0.0389
5 | RRIRLRPPRLPRPRPRPNDWPRP | -0.261
6 | RRIRRRPPRLPRPRPRPTSQPRP | 0.249
7 | RRIRGRPPRLPRPRPRPIQVPRP | 0.118
8 | RRIRFRPPRLPRPRPRPINIPRP | -0.113
9 | RRIRVRPPRLPRPRPRPAMEPRP | -0.139
10 | RRIRTRPPRLPRPRPRPPSKPRP | -0.326
11 | RRIRRRPPRLPRPRPRPIWGPRP | 0.163
12 | RRIRWRPPRLPRPRPRPSEKPRP | -0.153
13 | RRIRSRPPRLPRPRPRPGQTPRP | -0.0742
14 | RRIRVRPPRLPRPRPRPCYSPRP | 0.00378
15 | RRIRSRPPRLPRPRPRPWWGPRP | 0.0289
16 | RRIRYRPPRLPRPRPRPGCAPRP | -0.139
17 | RRIRHRPPRLPRPRPRPCKYPRP | 0.0259
18 | RRIRKRPPRLPRPRPRPWPIPRP | 0.891
19 | RRIRGRPPRLPRPRPRPADMPRP | 0.373
20 | RRIRARPPRLPRPRPRPFAHPRP | 0.128
21 | RRIRMRPPRLPRPRPRPYHIPRP | -0.69
22 | RRIRDRPPRLPRPRPRPCIIPRP | -0.0943
23 | RRIRGRPPRLPRPRPRPHGHPRP | 0.382
24 | RRIRMRPPRLPRPRPRPINSPRP | -0.142
25 | RRIRHRPPRLPRPRPRPVQCPRP | -0.00186

Row | Sequence | shrunken log2 fold change
26 | RRIRHRPPRLPRPRPRPYQAPRP | -0.00987
27 | RRIRKRPPRLPRPRPRPIYEPRP | -0.0432
28 | RRIRGRPPRLPRPRPRPGATPRP | 1.39
29 | RRIRDRPPRLPRPRPRPKFPPRP | -0.237
30 | RRIRTRPPRLPRPRPRPECNPRP | 0.0232
31 | RRIRHRPPRLPRPRPRPTFMPRP | -0.102
32 | RRIRIRPPRLPRPRPRPRSVPRP | -0.056
33 | RRIRCRPPRLPRPRPRPVPFPRP | -0.132
34 | RRIRKRPPRLPRPRPRPWIEPRP | 0.00935
35 | RRIRLRPPRLPRPRPRPATWPRP | -0.125
36 | RRIRFRPPRLPRPRPRPTTYPRP | -0.608
37 | RRIRGRPPRLPRPRPRPFTWPRP | 0.725
38 | RRIRQRPPRLPRPRPRPTCEPRP | 0.0552
39 | RRIRYRPPRLPRPRPRPRGKPRP | 0.158
40 | RRIRDRPPRLPRPRPRPGQDPRP | 0.945
41 | RRIRQRPPRLPRPRPRPYVCPRP | -0.0671
42 | RRIRMRPPRLPRPRPRPTHAPRP | 0.995
43 | RRIRLRPPRLPRPRPRPVGVPRP | -0.0387
44 | RRIRERPPRLPRPRPRPKVCPRP | -0.0496
45 | RRIRFRPPRLPRPRPRPCDTPRP | -0.09
46 | RRIRERPPRLPRPRPRPQWPPRP | -0.0675
47 | RRIRMRPPRLPRPRPRPCYEPRP | 0.0712
48 | RRIRVRPPRLPRPRPRPGSDPRP | -0.00601
49 | RRIRKRPPRLPRPRPRPCSKPRP | -0.01
50 | RRIRNRPPRLPRPRPRPCLIPRP | -0.018

Row | Sequence | shrunken log2 fold change
51 | RRIRLRPPRLPRPRPRPYALPRP | -0.141
52 | RRIRERPPRLPRPRPRPKIAPRP | -0.147
53 | RRIRFRPPRLPRPRPRPHFFPRP | -0.053
54 | RRIRRRPPRLPRPRPRPNRMPRP | -0.303
55 | RRIRRRPPRLPRPRPRPYVNPRP | -0.0793
56 | RRIRIRPPRLPRPRPRPEPAPRP | 0.326
57 | RRIRPRPPRLPRPRPRPEQLPRP | 0.0838
58 | RRIRFRPPRLPRPRPRPAGMPRP | -0.124
59 | RRIRDRPPRLPRPRPRPYWQPRP | -0.548
60 | RRIRGRPPRLPRPRPRPSMGPRP | 0.34
61 | RRIRIRPPRLPRPRPRPLLVPRP | -0.565
62 | RRIRSRPPRLPRPRPRPGFQPRP | -0.114
63 | RRIRKRPPRLPRPRPRPLPAPRP | 1.13
64 | RRIRARPPRLPRPRPRPHREPRP | 0.0826
65 | RRIRMRPPRLPRPRPRPVGTPRP | 0.477
66 | RRIRTRPPRLPRPRPRPAVRPRP | 0.203
67 | RRIRGRPPRLPRPRPRPQQCPRP | 0.13
68 | RRIRDRPPRLPRPRPRPIFEPRP | 0.419
69 | RRIRSRPPRLPRPRPRPWGLPRP | 0.0137
70 | RRIRIRPPRLPRPRPRPNYPPRP | -0.565
71 | RRIRDRPPRLPRPRPRPLKCPRP | 0.055
72 | RRIRIRPPRLPRPRPRPKGYPRP | -0.0143
73 | RRIRGRPPRLPRPRPRPDITPRP | 1.01
74 | RRIRRRPPRLPRPRPRPAFPPRP | 0.356
75 | RRIRDRPPRLPRPRPRPLRCPRP | 0.177

Row | Sequence | shrunken log2 fold change
76 | RRIRNRPPRLPRPRPRPRNFPRP | -0.132
77 | RRIRLRPPRLPRPRPRPPCMPRP | -0.0839
78 | RRIRPRPPRLPRPRPRPASDPRP | 0.261
79 | RRIRIRPPRLPRPRPRPRHYPRP | -0.177
80 | RRIRARPPRLPRPRPRPESDPRP | 1.17
81 | RRIRVRPPRLPRPRPRPCDTPRP | 0.0884
82 | RRIRHRPPRLPRPRPRPSIYPRP | -0.418
83 | RRIRYRPPRLPRPRPRPNLRPRP | -0.341
84 | RRIRTRPPRLPRPRPRPFQDPRP | 0.00739
85 | RRIRNRPPRLPRPRPRPCAIPRP | -0.0115
86 | RRIRPRPPRLPRPRPRPFARPRP | 0.206
87 | RRIRARPPRLPRPRPRPTDWPRP | 0.712
88 | RRIRMRPPRLPRPRPRPRGNPRP | 0.37
89 | RRIRPRPPRLPRPRPRPVRKPRP | 0.73
90 | RRIRSRPPRLPRPRPRPHMPPRP | -0.401
91 | RRIRPRPPRLPRPRPRPWLKPRP | -0.371
92 | RRIRNRPPRLPRPRPRPQIVPRP | -0.0891
93 | RRIRLRPPRLPRPRPRPVDSPRP | 0.0702
94 | RRIRPRPPRLPRPRPRPPTRPRP | 0.683
95 | RRIRHRPPRLPRPRPRPEIFPRP | -0.0725
96 | RRIRTRPPRLPRPRPRPSGQPRP | 0.0245
97 | RRIRPRPPRLPRPRPRPPYDPRP | -0.173
98 | RRIRERPPRLPRPRPRPCGEPRP | -0.116
99 | RRIRERPPRLPRPRPRPFYVPRP | -0.189
100 | RRIRERPPRLPRPRPRPKNKPRP | -0.559

Row | Sequence | shrunken log2 fold change
101 | RRIRRRPPRLPRPRPRPQRSPRP | 0.302
102 | RRIRIRPPRLPRPRPRPPILPRP | -0.0859
103 | RRIRKRPPRLPRPRPRPNSDPRP | -0.0158
104 | RRIRPRPPRLPRPRPRPQNYPRP | -0.395
105 | RRIRKRPPRLPRPRPRPGFWPRP | 0.537
106 | RRIRERPPRLPRPRPRPWGRPRP | 0.268
107 | RRIRTRPPRLPRPRPRPIFAPRP | 0.408
108 | RRIRNRPPRLPRPRPRPEKCPRP | -0.0684
109 | RRIRVRPPRLPRPRPRPMTDPRP | 0.168
110 | RRIRRRPPRLPRPRPRPWFRPRP | 0.0331
111 | RRIRKRPPRLPRPRPRPHKCPRP | 2.12
112 | RRIRCRPPRLPRPRPRPGIQPRP | -0.248
113 | RRIRNRPPRLPRPRPRPKGCPRP | -0.0382
114 | RRIRDRPPRLPRPRPRPKYTPRP | -0.214
115 | RRIRDRPPRLPRPRPRPQEKPRP | 0.0105
116 | RRIRPRPPRLPRPRPRPSVYPRP | -0.361
117 | RRIRHRPPRLPRPRPRPRYLPRP | -0.0229
118 | RRIRERPPRLPRPRPRPRRCPRP | 0.0702
119 | RRIRGRPPRLPRPRPRPYSPPRP | -0.528
120 | RRIRKRPPRLPRPRPRPYGAPRP | 0.00792
121 | RRIRHRPPRLPRPRPRPKPMPRP | 0.223
122 | RRIRQRPPRLPRPRPRPTNSPRP | -0.225
123 | RRIRDRPPRLPRPRPRPWMDPRP | -0.0272
124 | RRIRPRPPRLPRPRPRPCVFPRP | -0.164
125 | RRIRFRPPRLPRPRPRPYIMPRP | -1.09
